B1: ATPase GET3 (Saccharomyces cerevisiae), Q12154 (parent)
chain: MDLTVEPNLHSLITSTTHKWIFVGGKGGVGKTTSSCSIAIQMALSQPNKQFLLISTDPAHNLSDAFGEKFGKDARKVTGMNNLSCMEIDPSAALKDMNDMAVSRANNNGSDGQGDDLGSLLQGGALADLTGSIPGIDEALSFMEVMKHIKRQEQGEGETFDTVIFDTAPTGHTLRFLQLPNTLSKLLEKFGEITNKLGPMLNSFMGAGNVDISGKLNELKANVETIRQQFTDPDLTTFVCVCISEFLSLYETERLIQELISYDMDVNSIIVNQLLFAENDQEHNCKRCQARWKMQKKYLDQIDELYEDFHVVKMPLCAGEIRGLNNLTKFSQFLNKEYNPITDGKVIYELEDKE

Variants of: B1
Conditions: with sc61b_human SEC61B
C285S;C288S was tested, and the “effect of a mutation on the interaction” value was “decreasing interaction”.
